The values that follow come from article PMC8693863.

The assay concerns the target Myomaker (MYMK) (mouse (endogenous in primary myoblasts)) (UniProt Q9D1N4). The assay is described as follows: proximity ligation; Duolink PLA on primary mouse myoblasts fixed with 4% PFA, 24 h after DMSO (Ctrl) or ERKi; antibody pairs anti-TMEM8C + anti-CaMKII, or anti-CaMKII + anti-Rac1; mean fluorescent intensity normalized to nuclei number per field.
Sequence of UniProt Q9D1N4 (Q9D1N4 whole entry): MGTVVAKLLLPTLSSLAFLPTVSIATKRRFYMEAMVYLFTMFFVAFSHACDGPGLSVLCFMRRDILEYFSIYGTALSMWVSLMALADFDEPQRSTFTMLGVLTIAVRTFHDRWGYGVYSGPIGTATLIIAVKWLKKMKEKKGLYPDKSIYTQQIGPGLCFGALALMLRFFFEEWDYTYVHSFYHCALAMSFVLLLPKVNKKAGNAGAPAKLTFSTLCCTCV

With “CaMKII (from UniProt Q6PHZ2 1-499) (natural protein)”, the fold increase of PLA signal mean fluorescent intensity, ERKi against DMSO control stood at 2.9 fold.
